Patent US9969998B2, “Compositions of adenosine deaminase-2 (ADA2), variants thereof and methods of using same” (Halozyme, Inc., priority 2014, dated 2018)

Columns and labels:
[1] = Heparin-affinity chromatography (heparin-Sepharose, SDS-PAGE); type: binding; conditions: for Heparin Column Binding: compared to WT rHuADA2, 0.3 mg/mL protein
[2] = Thermal stability by differential scanning fluorimetry (DSF); type: physicochemical; conditions: for Tm, melting temperature by DSF: 0.1-1 mg/mL protein
Summary of the method: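 Tm was taken as the midpoint of the unfolding transition. WT and variant rHuADA2, PEGylated or not, at 0.1-1 mg/mL were run in triplicate with ROX thermal shift dye, ramped 25 to 99° C at 0.05° C/s. Fluorescence read at 580 nm excitation and 623 nm emission.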

[3] = Heparin binding ELISA (heparin coated microtiter plate); conditions: for Average OD450, heparin binding ELISA: 3 μM protein; for Heparin Binding ELISA Average OD450: single and S265N combination variants (Table 34)
Summary of the method: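 Plates coated with 200 μg/mL heparin in Na2CO3 buffer pH 9.6 overnight at 4° C, then milk-blocked. FLAG-tagged rHuADA2 variants added at 3 μM for 2 h at room temperature. Bound protein detected with HRP-anti-FLAG and TMB, read as OD450.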

[4] = Adenosine deaminase (ADA) enzymatic activity assay kit; type: biochemical; conditions: for % of WT adenosine deaminase activity: Table 23; for % activity vs. WT: relative to rHuADA2 WT (Table 21); for Adenosine deaminase activity mU/ml / Adenosine deaminase activity ΔA/min / % of WT activity: purified protein at 5 μg/mL; for % of WT activity: compared to WT-ADA2
[5] = PEGylated and non-PEGylated forms (Table 23)
[6] = protein diluted to 5 μg/mL, serially diluted 2 fold (Table 21)

heparin binding compared to WT [1]	Heparin Column Binding [1]	Average OD450, heparin binding ELISA ([3]; Set 2)	Heparin Binding ELISA Average OD450 [3]	% activity vs. WT [4]	Average OD450, heparin binding ELISA ([3]; Set 1)	% of WT activity [4]	Molecule	Tm, melting temperature by DSF [2]	binding to heparin-coated plates compared to WT ADA2 [3]	enzymatic activity relative to WT rHuADA2 [4]	adenosine deaminase activity mU/mL [4, 5]	% of WT adenosine deaminase activity [4]	adenosine deaminase activity mU/mL [4, 6]	ΔA/min, adenosine deaminase activity [4, 6]	Tm higher than WT ADA2 [2]	Adenosine deaminase activity mU/ml [4]	Adenosine deaminase activity ΔA/min [4]
attenuated heparin binding	Reduced	0.2	0.71	207.1%			R23E: ADA2 variant SEQ ID NO:30 (protein, human ADA2 R20E, mature numbering) IDETRAHLLLKEKMMRLGGELVLNTKEELANERLMTLKIAEMKEAMRTLIFPPSMHFFQAKHLIERSQVFNILRMMPKGAALHLHDIGIVTMDWLVRNVTYRPHCHICFTPRGIMQFRFAHPTPRPSEKCSKWILLEDYRKRVQNVTEFDDSLLRNFTLVTQHPEVIYTNQNVVWSKFETIFFTISGLIHYAPVFRDYVFRSMQEFYEDNVLYMEIRARLLPVYELSGEHHDEEWSVKTYQEVAQKFVETHPEFIGIKIIYSDHRSKDVAVIAESIRMAMGLRIKFPTVVAGFDLVGHEDTGHSLHDYKEALMIPAKDGVKLPYFFHAGETDWQGTSIDRNILDALMLNTTRIGHGFALSKHPAVRTYSWKKDIPIEVCPISNQVLKLVSDLRNHPVATLMATGHPMVISSDDPAMFGAKGLSYDFYEVFMGIGGMKADLRTLKQLAMNSIKYSTLLESEKNTFMEIWKKRWDKFIADVATK	65.2 °C	attenuated binding to heparin	improved enzymatic activity	129.9 mU/mL	106.8%	161.6 mU/mL	70.2			
attenuated heparin binding	Reduced		0.03	402.3%	0.11		K374E: ADA2 variant SEQ ID NO:21 (protein, human ADA2 K371E, mature numbering) IDETRAHLLLKEKMMRLGGRLVLNTKEELANERLMTLKIAEMKEAMRTLIFPPSMHFFQAKHLIERSQVFNILRMMPKGAALHLHDIGIVTMDWLVRNVTYRPHCHICFTPRGIMQFRFAHPTPRPSEKCSKWILLEDYRKRVQNVTEFDDSLLRNFTLVTQHPEVIYTNQNVVWSKFETIFFTISGLIHYAPVFRDYVFRSMQEFYEDNVLYMEIRARLLPVYELSGEHHDEEWSVKTYQEVAQKFVETHPEFIGIKIIYSDHRSKDVAVIAESIRMAMGLRIKFPTVVAGFDLVGHEDTGHSLHDYKEALMIPAKDGVKLPYFFHAGETDWQGTSIDRNILDALMLNTTRIGHGFALSKHPAVRTYSWEKDIPIEVCPISNQVLKLVSDLRNHPVATLMATGHPMVISSDDPAMFGAKGLSYDFYEVFMGIGGMKADLRTLKQLAMNSIKYSTLLESEKNTFMEIWKKRWDKFIADVATK	69.7 °C	attenuated binding to heparin	improved enzymatic activity			313.8 mU/mL	136.5	1.4 °C		
			0.88			211%	S265N: ADA2 variant SEQ ID NO:54 (protein, human ADA2 S262N, mature numbering) IDETRAHLLLKEKMMRLGGRLVLNTKEELANERLMTLKIAEMKEAMRTLIFPPSMHFFQAKHLIERSQVFNILRMMPKGAALHLHDIGIVTMDWLVRNVTYRPHCHICFTPRGIMQFRFAHPTPRPSEKCSKWILLEDYRKRVQNVTEFDDSLLRNFTLVTQHPEVIYTNQNVVWSKFETIFFTISGLIHYAPVFRDYVFRSMQEFYEDNVLYMEIRARLLPVYELSGEHHDEEWSVKTYQEVAQKFVETHPEFIGIKIIYNDHRSKDVAVIAESIRMAMGLRIKFPTVVAGFDLVGHEDTGHSLHDYKEALMIPAKDGVKLPYFFHAGETDWQGTSIDRNILDALMLNTTRIGHGFALSKHPAVRTYSWKKDIPIEVCPISNQVLKLVSDLRNHPVATLMATGHPMVISSDDPAMFGAKGLSYDFYEVFMGIGGMKADLRTLKQLAMNSIKYSTLLESEKNTFMEIWKKRWDKFIADVATK	60.8 °C	attenuated binding to heparin coated plates							164.8 mU/ml	71.7 ΔA/min
		0.55	2.31	100%	0.49	100%	WT ADA2: wild type recombinant human adenosine deaminase 2 with FLAG tag, mature ADA2 SEQ ID NO:5 (protein, listed as Homo sapiens, FLAG tag; ADA2 mature protein) IDETRAHLLLKEKMMRLGGRLVLNTKEELANERLMTLKIAEMKEAMRTLIFPPSMHFFQAKHLIERSQVFNILRMMPKGAALHLHDIGIVTMDWLVRNVTYRPHCHICFTPRGIMQFRFAHPTPRPSEKCSKWILLEDYRKRVQNVTEFDDSLLRNFTLVTQHPEVIYTNQNVVWSKFETIFFTISGLIHYAPVFRDYVFRSMQEFYEDNVLYMEIRARLLPVYELSGEHHDEEWSVKTYQEVAQKFVETHPEFIGIKIIYSDHRSKDVAVIAESIRMAMGLRIKFPTVVAGFDLVGHEDTGHSLHDYKEALMIPAKDGVKLPYFFHAGETDWQGTSIDRNILDALMLNTTRIGHGFALSKHPAVRTYSWKKDIPIEVCPISNQVLKLVSDLRNHPVATLMATGHPMVISSDDPAMFGAKGLSYDFYEVFMGIGGMKADLRTLKQLAMNSIKYSTLLESEKNTFMEIWKKRWDKFIADVATK	67.1 °C			121.6 mU/mL	100%	78 mU/mL	33.9		78 mU/ml	33.9 ΔA/min
attenuated heparin binding	Reduced		0.87	345.9%	0.15		K374D: ADA2 variant SEQ ID NO:20 (protein, human ADA2 K371D, mature numbering) IDETRAHLLLKEKMMRLGGRLVLNTKEELANERLMTLKIAEMKEAMRTLIFPPSMHFFQAKHLIERSQVFNILRMMPKGAALHLHDIGIVTMDWLVRNVTYRPHCHICFTPRGIMQFRFAHPTPRPSEKCSKWILLEDYRKRVQNVTEFDDSLLRNFTLVTQHPEVIYTNQNVVWSKFETIFFTISGLIHYAPVFRDYVFRSMQEFYEDNVLYMEIRARLLPVYELSGEHHDEEWSVKTYQEVAQKFVETHPEFIGIKIIYSDHRSKDVAVIAESIRMAMGLRIKFPTVVAGFDLVGHEDTGHSLHDYKEALMIPAKDGVKLPYFFHAGETDWQGTSIDRNILDALMLNTTRIGHGFALSKHPAVRTYSWDKDIPIEVCPISNQVLKLVSDLRNHPVATLMATGHPMVISSDDPAMFGAKGLSYDFYEVFMGIGGMKADLRTLKQLAMNSIKYSTLLESEKNTFMEIWKKRWDKFIADVATK	66.8 °C	attenuated binding to heparin	improved enzymatic activity	162.9 mU/mL	134%	269.8 mU/mL	117.3			
							PEG-K374D: rHuADA2-K374D (SEQ ID NO:20) PEGylated on surface exposed lysines with linear PEG-20K (conjugate, linear PEG-20K on surface lysines; human ADA2 K371D, mature numbering) IDETRAHLLLKEKMMRLGGRLVLNTKEELANERLMTLKIAEMKEAMRTLIFPPSMHFFQAKHLIERSQVFNILRMMPKGAALHLHDIGIVTMDWLVRNVTYRPHCHICFTPRGIMQFRFAHPTPRPSEKCSKWILLEDYRKRVQNVTEFDDSLLRNFTLVTQHPEVIYTNQNVVWSKFETIFFTISGLIHYAPVFRDYVFRSMQEFYEDNVLYMEIRARLLPVYELSGEHHDEEWSVKTYQEVAQKFVETHPEFIGIKIIYSDHRSKDVAVIAESIRMAMGLRIKFPTVVAGFDLVGHEDTGHSLHDYKEALMIPAKDGVKLPYFFHAGETDWQGTSIDRNILDALMLNTTRIGHGFALSKHPAVRTYSWDKDIPIEVCPISNQVLKLVSDLRNHPVATLMATGHPMVISSDDPAMFGAKGLSYDFYEVFMGIGGMKADLRTLKQLAMNSIKYSTLLESEKNTFMEIWKKRWDKFIADVATK	67.81 °C			142 mU/mL	116.8%					
